Values of other authors as cited in article PMC7443330.

Biological target: Spike RBD RBD (SARS-CoV-2) (UniProt P0DTC2)

Substance: Spike binding peptide 1 (SBP1)
- Kd: 47 nM
